One block for each molecule: values may come before it.
Tests used:
[1] = target: growth hormone secretagogue receptor type 1a (human) (UniProt Q92847); assay: cell-based or functional assay
[2] = test system: Ishikawa cells; assay: Cell proliferation assay (MTT dye method), Ishikawa cells; format: cell-based, human; details: ghrelin 0-20 nM, 3 days, 10% FCS
Protocol: (§1) FIG. 14: The effect of ghrelin on MDA-MB231 and Ishikawa cells. Cell proliferation was determined using the MTT dye method. Absorbance readings for each were converted to percentages above control±SEM, indicated by error bars. * denotes P values <0.01, ** P<0.001 (one-way ANOVA with Tukey's post hoc comparisons).
(§2) PC3, MDAMB231 and Ishikawa cells were cultured in 96 well plates for 3 days at 37° C. in the presence of ghrelin (0-20 nM), in 10% FCS. Negative controls received no treatment. After aspiration of medium, cells were incubated in MTT (Sigma) solution (0.5 mg/ml) for 2h. MTT solution was aspirated and formazan salts solubilised in dimethyl sulfoxide (ICN, Costa Mesa, Calif.). A Biomeck Plate reader (Beckman, QLD, Australia) was used to measure absorbances (550/650nm).

[3] = test system: PC3 cells; assay: Cell proliferation assay (MTT dye method), PC3 cells; format: cell-based, human; details: 5 nM ghrelin, 3 days, 10% FCS
Protocol: as §1, with “13:” for “14:”, “PC3” for “MDA-MB231 and Ishikawa”, “percentage” for “percentages”, “comparisons). Data represents one of 3 identical experiments, each n=16.” for “comparisons).”
as §2

[4] = test system: MDA-MB 231 cells; assay: Cell proliferation assay (MTT dye method), MDA-MB 231 cells; format: cell-based, human; details: ghrelin 0-20 nM, 3 days, 10% FCS
Protocol: as §1, §2

UniProt Q92847, sequence (Q92847 whole entry): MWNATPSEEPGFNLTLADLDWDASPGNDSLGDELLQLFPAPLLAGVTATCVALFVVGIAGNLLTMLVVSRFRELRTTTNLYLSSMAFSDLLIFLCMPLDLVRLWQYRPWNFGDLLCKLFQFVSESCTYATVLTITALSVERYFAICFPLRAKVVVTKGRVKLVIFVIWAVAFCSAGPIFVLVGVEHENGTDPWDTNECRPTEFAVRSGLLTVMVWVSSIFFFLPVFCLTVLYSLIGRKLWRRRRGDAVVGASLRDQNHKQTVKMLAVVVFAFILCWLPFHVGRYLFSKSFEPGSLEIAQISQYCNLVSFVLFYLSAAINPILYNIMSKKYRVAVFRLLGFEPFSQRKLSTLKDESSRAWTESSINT

Cell proliferation of PC3 cells (MTT dye method) (% above controls) [1]: 33
Molecule: human ghrelin (from UniProt Q9UBU3 24-117) (peptide)

B1: ghrelin (peptide)
peptide: GSSFLSPEHQRVQQRKESKKPPAKLQPRALAGWLRPEDGGQAEGAEDELEVRFNAPFDVGIKLSGVQYQQHSQALGKFLQDILWEEAKEAPADK
notes: endogenous ligand for the GHS-R, a 28 amino acid peptide
dose related increase in cell proliferation above untreated controls (peak) [2]: 19%
viable cell numbers increased above controls (peak of dose-related increase) [3]: 33%
dose related increase in cell proliferation above untreated controls (peak) [4]: 25%
